Results on two substances are retold here after publication PMC4372114.

The assay addresses Recombinant human vascular endothelial growth factor receptor (VEGFR) (human) (UniProt P35968). The experiment in a line: SPR.

Values joined by “and” are separate entries in the source; they are usually repeats but may differ in a detail not shown here. Identical values can stand only once.

Chain of UniProt P35968 (P35968 20-764): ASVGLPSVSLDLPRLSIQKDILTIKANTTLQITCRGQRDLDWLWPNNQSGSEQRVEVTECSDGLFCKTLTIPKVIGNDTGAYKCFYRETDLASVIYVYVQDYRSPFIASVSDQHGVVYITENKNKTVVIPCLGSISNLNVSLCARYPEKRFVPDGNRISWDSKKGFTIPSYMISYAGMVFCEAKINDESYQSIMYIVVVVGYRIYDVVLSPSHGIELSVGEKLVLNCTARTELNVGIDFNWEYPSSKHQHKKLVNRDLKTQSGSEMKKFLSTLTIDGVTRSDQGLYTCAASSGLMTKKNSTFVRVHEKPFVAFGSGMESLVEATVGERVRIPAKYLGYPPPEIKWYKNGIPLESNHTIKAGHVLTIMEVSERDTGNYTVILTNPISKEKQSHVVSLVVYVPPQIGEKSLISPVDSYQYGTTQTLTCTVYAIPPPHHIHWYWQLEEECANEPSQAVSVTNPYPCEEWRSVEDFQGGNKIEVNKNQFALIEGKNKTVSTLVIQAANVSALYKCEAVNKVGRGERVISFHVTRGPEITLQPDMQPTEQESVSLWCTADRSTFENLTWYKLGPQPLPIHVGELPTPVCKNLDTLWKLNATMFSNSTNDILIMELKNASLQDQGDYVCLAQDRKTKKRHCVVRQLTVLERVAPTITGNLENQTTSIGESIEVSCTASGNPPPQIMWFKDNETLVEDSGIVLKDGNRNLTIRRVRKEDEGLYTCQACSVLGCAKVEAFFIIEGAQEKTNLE

Turning to “Recombinant human vascular endothelial growth factor (VEGF) (from UniProt P15692 1-395) (ligand)”, the SPR baseline shift is 60.2 mDeg and 69.3 mDeg and 57.4 mDeg; the kon was 83000 M⁻¹ s⁻¹ and 91000 M⁻¹ s⁻¹ and 82000 M⁻¹ s⁻¹. On to “VEGF released from living SKOV-3 cells (from UniProt P15692 1-395) (ligand)”, for which the SPR baseline shift is 104 mDeg and 106 mDeg and 113 mDeg.
